Patent US20060110789A1, “Methods to mediate polyketide synthase module effectiveness” (priority 2002, published 2006)
Values joined by “and” are separate entries in the source; they are usually repeats but may differ in a detail not shown here. Equal entries are not always repeated.

Legend:
[1] = target: M3+TE or (5)M3+TE (DEBS module 3 fused to thioesterase); conditions: with M3+TE, cited from earlier work
[2] = system: diketide thioester; test: Kinetic constants kcat and KM of single module constructs converting diketide to triketide; format: biochemical
Experimental: (§1) A cell-free system, tested for the ability to convert the cysteamine thioester of 2S,3R-2-methyl-3-hydroxypentanoic acid (compound 2 in FIG. 2), consisted of 0.5-10 mM concentration of the thioester, 2.5 mM ^14C-labeled methylmalonyl CoA and 100 pmoles of purified protein prepared in Example 1 in a 100 μl reaction. In some cases, 1 mM of NADPH was added; this was done in assay mixtures containing (M2+TE), (M5+TE) and (M6+TE) proteins. The protein was, in each case, a single module of the DEBS PKS fused to the thioesterase (TE) termination region of module 6.
The various constructs which are successful in converting diketide to triketide were then evaluated for the kinetic constants kcat and KM. […] This is evidently due to the absence of beta-carbonyl modifying enzymes in module 3 as verified by the fact that removal of NADPH, (which is required for the activity of such modules) from the reaction mixture of (N-ERL-M6+TE) also results in a lowering of the kcat.

[3] = system: cysteamine thioester of 2S,3R-2-methyl-3-hydroxypentanoic acid (diketide); test: Cell-free synthesis of triketides from diketide thioester by single module constructs; format: biochemical; conditions: 0.5-10 mM diketide thioester, 2.5 mM 14C-methylmalonyl CoA, 100 pmoles protein, 30 minutes, TLC
Experimental: as §1
The reaction mixtures were quenched and extracted by ethyl acetate and separated by thin-layer chromatography (TLC) to discern the formation of the triketide ketolactone 3 and triketide lactone 4 (both shown in FIG. 2) after 30 minutes.
The constructs for (M2+TE) and (M6+TE) were modified by deleting the sequences encoding the amino acids upstream of the KS catalytic domain and substituting the first 39 amino acids from (M5+TE) containing the N-terminal portion of the interpolypeptide linker (N-ERL). The relevant constructs were prepared by replacing the BsaBI-EcoRI fragment in pRSG46 by the corresponding fragment from pCK4 to obtain N-ERL-M2+TE), in plasmid pRSG64, or from pJRJ10 to obtain (N-ERL-M6+TE) in plasmid pRSG54. These constructs yield modules which contain the upstream 39 amino acids from module 5.

[4] = target: T1, M2(4) and (5)M3+TE (Saccharopolyspora erythraea, UniProt Q03131+Q03133, A1559G/A1612M/A1613S/A1621R/A1638S/A1707S/A1714P/A1717D/A1741R/A1766S/A1884G/A1933P/A1935T/A1951R/A1969R/A1973H/A1979Q/A2007V/A2008V/A2011V/A2018D/A2064V/A2138S/D1597P/D1620G/DEL1744-1744/DEL1923-1924/DEL1955-1967/E1628D/E1873D/E1883D/E1925V/E1947G/E1993A/E2004D/F1591L/G1618A/G1705A/G1739A/G1878E/G1927Q/G1930R/G1977A/G1990A/G1997H/G2038E/G2099R/H1599E/H1992T/I1756V/INS1626G/INS1975[…]/K1779R/K2139R/L1590A/L1610V/L1858V/L1941V/L1981F/L1987V/L1995A/L2136R/L2141V/L2144V/N1593S/N1855E/N1936G/P1725G/P1740R/P1870G/P1887E/P1889S/P1982E/Q1619T/Q1732V/Q1746R/Q1994E/Q1998R/Q2070P/R1983E/R1996V/S1600T/S1627V/S1636T/S1637A/S1670T/S1886R/S1937V/S1972D/S2041P/S2089A/S2104V/T1762S/T1948A/T1968G/T1976R/T2012V/T2015S/V1583A/V1601L/V1622P/V1623R/V1640A/V1644I/V1655L/V1708P/V1728S/V1730F/V1851L/V1879I/V1929R/V1931M/V2006A/V2021S/V2103A/V2124A/V2131M/Y1614H); test: Inhibition of tetraketide production by synthetic peptide, M4-M5 linker pair; format: biochemical; conditions: M2(4) 0.5 μM and (5)M3+TE 1.0 μM, peptide concentrations up to 100 μM
T1 construct: Plasmid pST179 encodes a derivative of M2 containing the C-terminal linker of DEBS module 4 (M4); made in house; host or cells: E. coli BL21(DE3) with B. subtilis sfp; pET-21c
Experimental: (§2) Inhibition of Tetraketide Production. The ability of the synthetic peptide to inhibit the transfer reaction, and thus the production of tetraketide, was tested under the same reaction conditions described for the two module coincubations. The concentrations of M2 and M3+TE were both 1.0 μM, and the concentrations of M2(4) and (5)M3+TE were 0.5 and 1.0 μM, respectively. The only difference was the addition of the peptide at concentrations ranging from 1 to 100 μM to the assay containing M2 and M3+TE [or alternatively M2(4) and (5)M3+TE]. For greater accuracy, each inhibition assay was performed side by side with a control lacking inhibitor. The effect of the inhibitor was thus determined by dividing the inhibited rate by the control rate.

[5] = system: individually assayed modules, including M3+TE; test: Effect of synthetic peptide on individually assayed modules; format: biochemical
Experimental: In Vitro Polyketide Production Assays of individual modules contained 1.0 μM protein, 1-10 mM N-acetylcysteamine thioester of the “natural” (2S,3R)-2-methyl-3-hydroxypentanoic acid diketide (NDK) (1), 4 mM NADPH, 440 mM sodium phosphate, 1 mM EDTA, 2.5 mM dithiothreitol (DTT), and 20% w/v glycerol, pH 7.2, in 80 μL. Reactions with M2 or M2(4) included 0.3 mM ^14C-methylmalonyl-CoA (specific activity adjusted to 10.4 mCi/mmol), and those with M3+TE or (5)M3+TE included 0.5 mM ^14C-methylmalonyl-CoA (specific activity reduced to 1.1 mCi/mmol). [M2(4) refers to a derivative of M2 in which the C-terminal linker has been replaced with its counterpart from module 4, whereas (5)M3 refers to a derivative of M3 in which the N-terminal linker has been replaced with its counterpart from module 5 (see FIG. 4).] Both concentrations of methylmalonyl-CoA were saturating, but different concentrations were needed due to the disparate rates of turnover between the modules with and without the thioesterase. The reaction mixtures were preincubated to 30° C. and started with the addition of the methylmalonyl-CoA. […] Product formation was quantified by comparison with standards of the labeled methylmalonyl-CoA. […]
Inhibition of Tetraketide Production. […] The effect of the inhibitor was thus determined by dividing the inhibited rate by the control rate.

[6] = target: T2, M2 and M3+TE (Saccharopolyspora erythraea, UniProt Q03131); test: Inhibition of tetraketide production by synthetic peptide, M2-M3 linker pair; format: biochemical; conditions: M2 and M3+TE both 1.0 μM, peptide 1 to 100 μM
T2 construct: Plasmid pBP19 contains module 2 of DEBS (M2) and is a derivative of pRSG64; made in house; host or cells: E. coli BL21(DE3) with B. subtilis sfp; pET-21c
Experimental: as §2

[7] = system: M3+TE or (5)M3+TE (DEBS module 3 fused to thioesterase); test: Coincubation of donor module 2 proteins with module 3+TE: tetraketide lactone 2 formation and KD; format: biochemical; conditions: acceptor (5)M3+TE, matched M4-M5 linker pair, saturation curve
Experimental: Assays of M2 and M3+TE contained 10 μM M2 and […] M3+TE, 7 mM NDK, 0.5 mM ^14C-methylmalonyl-CoA (specific activity reduced to 3.4 mCi/mmol), 4 mM NADPH, 440 mM sodium phosphate, 1 mM EDTA, 2.5 mM DTT, and 20% w/v glycerol, pH 7.2, in 70 μL. Assays of M2(4) and (5)M3+TE were identical, except they contained 0.5 μM M2(4), 0.5-5 μM (5)M3+TE, and 0.4 mM ^14C-methylmalonyl-CoA (specific activity reduced to 6.2 mCi/mmol). The concentration of M2(4) was limiting in order to facilitate its saturation with (5)M3+TE. The reactions were prewarmed at 30° C. and initiated by the addition of the methylmalonyl-CoA. As described above, 20 μL aliquots were removed at various time points and processed. […]
For tetraketide formation, the rate of production of tetaketide was recorded for varying concentrations of M3+TE [or (5)M3+TE] at a fixed concentration of M2 [or M2(4)] and saturating concentrations of substrates. By fitting the rate dependence of tetraketide to a saturation curve, the maximal velocity (vmax) of tetraketide production was determined, and was assumed to represent the case where every M2 homodimer was productively associated with an M3+TE homodimer. Thus, the affinity of this protein-protein interaction could be calculated from the rate v=kcat[M2−M3] […]

[8] = system: N-acetylcysteamine thioester of (2S,3R)-2-methyl-3-hydroxypentanoic acid diketide (NDK); test: In vitro polyketide production assays of individual modules with NDK (kinetic analysis); format: biochemical; conditions: NDK 1-10 mM, 1.0 μM protein, 30° C; M2 and M2(4) only approximate (triketide lactone 3)
Experimental: In Vitro Polyketide Production Assays of individual modules contained 1.0 μM protein, 1-10 mM N-acetylcysteamine thioester of the “natural” (2S,3R)-2-methyl-3-hydroxypentanoic acid diketide (NDK) (1), 4 mM NADPH, 440 mM sodium phosphate, 1 mM EDTA, 2.5 mM dithiothreitol (DTT), and 20% w/v glycerol, pH 7.2, in 80 μL. Reactions with M2 or M2(4) included 0.3 mM ^14C-methylmalonyl-CoA (specific activity adjusted to 10.4 mCi/mmol), and those with M3+TE or (5)M3+TE included 0.5 mM ^14C-methylmalonyl-CoA (specific activity reduced to 1.1 mCi/mmol). [M2(4) refers to a derivative of M2 in which the C-terminal linker has been replaced with its counterpart from module 4, whereas (5)M3 refers to a derivative of M3 in which the N-terminal linker has been replaced with its counterpart from module 5 (see FIG. 4).] […] Product formation was quantified by comparison with standards of the labeled methylmalonyl-CoA. […]
Kinetic Analysis. For individual modules, the steady-state turnover number was determined from the time course of triketide formation, normalized to the concentration of protein. The dependence of the rate on substrate concentration was measured by varying the concentration of NDK while maintaining saturating levels of NADPH and methylmalonyl-CoA.

[9] = diketide to triketide, cell-free
[10] = listed as N-terminal linker of module 3
[11] = listed as synthetic peptide mimic of the N-terminal linker of M3

## DEBS1: first protein of 6-deoxyerythronolide B synthase: loading module and extender modules 1 and 2
[1]; Gokhale et al. 1999, read-out: KD (previously reported value)
  Kd: 2600 nM
[1]; Pieper et al. 1997
  rate of formation of the same tetraketide (earlier measurement): 0.23 min⁻¹

## ERL−M2+TE: module 2+TE with the first 39 amino acids from (M5+TE), N-terminal interpolypeptide linker (pRSG64)
[2]; [9]
  Km: 4.6 ± 0.4 mM
  kcat × 100: 8 ± 0.6 min^−1
[3]
  Triketide Formed: Yes

## ERL−M6+TE: module 6+TE with the first 39 amino acids from (M5+TE), N-terminal interpolypeptide linker (pRSG54)
[2]; [9]
  Km: 4.3 ± 0.4 mM
  kcat × 100: 9.5 ± 0.6 min^−1
[2]; −NADPH
  Km: 4.1 ± 0.4 mM
  kcat × 100: 4.5 ± 0.7 min^−1
[3]
  Triketide Formed: Yes

## H2N-MTDSEKVAEYLRRATLDLRAARQRIRELESD-amide (H-MTDSEKVAEYLRRATLDLRAARQRIRELESD-NH2) [M3 N-term]
[4]; [10]
  inhibition of tetraketide production: No inhibitory effect
[4]; [11]
  inhibition of tetraketide production: no such effect
[5]
  inhibitory effect upon individually assayed modules: no inhibitory effect
[6]; [10]
  inhibition of tetraketide production: inhibit the formation of 2 in the presence of M2 and M3+TE in a concentration-dependent manner
[6]; [11]
  inhibition of tetraketide production: lowered the overall rate of tetraketide production in a dose-dependent fashion

## M2(4): derivative of M2 containing the C-terminal linker of DEBS module 4 (pST179)
[7]
  kcat of tetraketide lactone 2 synthesis: 0.0123 ± 0.001 s⁻¹ and 0.0123 s⁻¹
[8]
  kcat: ~0.0005 s⁻¹

## M5+TE: DEBS module 5 with its natural N-terminal linker fused to thioesterase (pRSG46)
[2]; [9]
  Km: 4.7 ± 0.4 mM
  kcat × 100: 7.5 ± 0.7 min^−1
[3]
  Triketide Formed: Yes
